# Test: yeast display, Sf9 membrane polyspecificity reagent, FACS + sequencing; frameworks hold sequencing errors
# In short: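 Nanobodies came from a synthetic yeast display library in Saccharomyces cerevisiae BJ5465, induced with galactose for 36–48 hours and stained for 1 hour at 4 °C with 10% biotinylated, detergent-solubilized Sf9 membrane reagent. Cells were enriched on streptavidin microbeads and then FACS-sorted, with low and high (top ~1%) gates set on anti-HA fluorescence for expression and streptavidin fluorescence for reagent binding. Each polyreactivity label reflects the gate a clone came from. Genes were amplified by colony PCR, sequenced by MiSeq 2 × 250 and filtered by CDR length.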
row,Sequence,polyreactivity (PSR sort gate)
1,QVQLLESGGGLVQAGGSLRLSCAASGFIFDIYAMGWYRQAPGKERELVASINWSGGDSTSYADSVKGRFTISRDNAKNTVFLQMYSLKPEDTAVYFCNAEYWSYSGGYPDEYDYWGLGTQVTVSS,low polyreactivity
2,QVQLLESGGGLVQAGGSLRLSCAASGFTFLSNVMGRYRQAPGKERELVAGINFSGDGTYYADSVKGRFTISRDNAKNTVYLQMNSLKPEDTAVYYCAGDVEYYRDVPQQVYVSDDYWGQGTQVTVSS,low polyreactivity
3,QVQLLESGGGLVQAGGSLRLSCAASGFTFRVNAMGWYIQAPGKERELVAAISSGGSTNYADSVKGRFTISRDNAKNTVYLQMNSLKPEDTAVYYCAKRFKYIYFWGQGTQVTVSS,high polyreactivity
4,QVQLLESGGGLVQAGGSLRLSCAASGFTITRYAMGWYRQAPGKERELVAAITYRGGSTYYADSVKGRFTISRDNAKITVYLQMNSLKPEDTAVYYCAADALYYFSWYYYWGQGTQVTVSS,high polyreactivity
5,QVQLLESGGGLVQAGGSLRLSCAASGLTFVRYDMGWDRQAPGKERELVAAISSSGGSTNYADSVKGRFTISRDNAKNTVYLQMNSLKPEDTAVYYCAADYTWRFLRFGYWGQGTQVTVSS,high polyreactivity
6,QVQLLESGGGLVQAGGSLRLSCAASGNLFHVNAMGWYRQAPGKERELVASISRRGGSTNYADSVKGRFTISRANAKNTVYLQMNSLKPEDTAVYYCATRLTSAVGRYLYDFGYWGQGTQVTVSS,high polyreactivity
7,QVQLLESGGGLVQAGGSLRLSCAASGRIFASYAMGWYRQAPGKARELVAAISTGGNTYYADSVKGRFTISRDNAKNTVYLQMNSLKPEDTAVYDCAALSGAHEHFVEYDYWGQGTQVTVSS,low polyreactivity
8,QVQLLESGGGLVQAGGSLRLSCAASGRIFGSNAMGWYRPAPGKERELVAAITRGGSTNYADSVKGRFTISRDNAKNTVYLQMNSLKPEDTAVYYCAVRWYRKYNYWGQGTQVTVSS,high polyreactivity
9,QVQLLESGGGLVQAGGSLRLSCAASGRIFGYYAMGWYRQAPGKERELVASISWSGGSTYYADSVKGRFSISRDNAKNTVYLQMNSLKPEDTAVYYCAAKRSFLSTIGNYDYWGQGTQVTVSS,high polyreactivity
10,QVQLLESGGGLVQAGGSLRLSCAASGRIFQFYAMGWYRKAPGKERELVAANSVRGGSTYYAHSVKGRFTISRDNEKNTVYLQMNSLKPEDTAVYYCAASKWGGYYYWGQGTQVTVSS,high polyreactivity
11,QVQLLESGGGLVQAGGSLRLSCAASGRIFSAYAMGWSRQAPGTERELVAAISWSGGSTYYADSVKGRFTISRDNAKNTVYLQMNSLKPEDTAVYYCAADYFYTSWYQHDYWGQGTQVTVSS,low polyreactivity
12,QVQLLESGGGLVQAGGSLRLSCAASGRIFVTYAMGWYRQAPGKERELVAAITSRGGRTYYADSVKGRFTISRDNAKNTVYLQMNSLKPEATAVYYCAAYPGPGARYYYWGQGTQVTVSS,high polyreactivity
13,QVQLLESGGGLVQAGGSLRLSCAASGRIFWNNAMGWYRQAPGKERELVAVISTRGGRTYYADSVKGRFTISRDNANNTVNLQMNSLKPEDTAVYYCAAEFLNKAVGGVTSIYDSWGQGTQVTVSS,low polyreactivity
14,QVQLLESGGGLVQAGGSLRLSCAASGRTFRHNVMAWYRQAPGNERELVAAISYSRGSTHYADSVKGRFTISRDNAKNTVYFQMNSLKPEANAVYYCNRYSYDAHFLYPFRGHDYWGQGTQVTVTS,low polyreactivity
15,QVQLLESGGGLVQAGGSLRLSCAASGRTFRINARGWYRQAPGKEREFVAAINYRGGSTYADSVKGRFTISRDNAKNTVYVQMNSLKPEDPAVYYCAAYATLWYYTGVHRGGFENWGQGSQVTVSS,high polyreactivity
16,QVQLLESGGGLVQAGGSLRLSCAASGRTFTLYTMGWYRQAPGKERELVAAISARGGSTYYADSVKGRFTISRDNAKNTVYLQMNSLKPEDTAVYYCAAESNRLRYYYWGQGTQVTVSS,high polyreactivity
17,QVQLLESGGGLVQAGGSLRLSCAASGRTLVGYAMGWYRQAPGTERELVAAITGSGGRTYYADSVKGRFTISRDNAKNTVYLQMNSLKPEDTAVYYCNKVYRVSSGAYLYDYWGQGTQVTVSS,high polyreactivity
18,QVQLLESGGGLVQAGGSLRLSCAASGSIFTGNAMGWYRQAPGKERELVAAISSSGGSTYYADSVKGRFTISRDNAKNNVYLQMNSLKPEDTAVYYCAAYNYFLQYDYWGQGSQVTVSS,low polyreactivity
19,QVQLLESGGGLVQAGGSLRLSCAASGSTFDWYVMGWYRQAPGKERELVAAINQGSGSTYYADSVKGRFTISRDNAKNTVYLQMNSLKPEDTAVYYCAADRYGAGYLYWPYDYWGQGTQVTVSS,low polyreactivity
20,QVQLLESGGGLVQAGGSLRLSCAASGSTFGYYTMGWYRQAPGKERVLVAGISSGGSTNYADSVKGRFTISRDNAKNTVYLQMNSLKQEDTAVYYCDTGSYSYHRGYVTYARFGYWGQGTQVTVSS,low polyreactivity

# Reference: the nanobody polyreactivity screen of Harvey et al. (2022)
